Data taken from US20200232972A1, “METHOD FOR SCREENING ANTI-AGING SUBSTANCES” (Shiseido Company, Ltd., priority 2017, published 2020).

Test system: young fibroblasts (MMP1 and collagen expression)
Experiment: Addition of senescence factor proteins to young fibroblasts: MMP1 and collagen gene expression by RT-PCR
Type: cell-based, Homo sapiens
Details: protein added at 10 μg/ml vs 0 μg/ml, 2 days; for MMP1 expression: FIG. 4(A); for expression of collagen (Collagen 1 gene): FIG. 4(B)
Method: Dermal fibroblasts established from skin from the back of an adult were cultured in Dulbecco's Modified Eagle Medium supplemented with 10% FBS. Cells with a culture period of less than 1 month and Pdl<30 were used as normal fibroblasts (young fibroblasts). These cells were cultured for 3 months or more and cells which began to proliferate more slowly (doubling time less than 0.5/week and Pdl>50) were used as senescent cells. Normal fibroblasts were inoculated on the upper layer of a 6-well transwell system (Falcon; Franklin Lakes, N.J.) filled with Dulbecco's Modified Eagle Medium supplemented with 10% FBS until the density was 1250 cell/cm^2. Subconstructed senescent fibroblasts and normal fibroblasts were separately inoculated in two wells of the lower layer of the transwell system. The upper layer and the lower layer of the transwell system were combined and cultured for 2 days at 37° C. in a humidified atmosphere with 5% CO2, and the cells in the upper layer and the lower layer were recovered using Qiazole (Qiagen).
RNA was extracted from the recovered cell lysate using RNeasy Protect Kit (Qiagen) by following the instructions therefor, then Superscript VILO (Invitrogen) was used to reverse transcribe the RNA into cDNA by following the instructions. Using 28SrRNA as an internal standard, real time PCR was performed with LightCycler (commercially available) using the primer pairs for the following genes. The cycle threshold (Ct value) calculated by Lightcycler software ver. 3.5 was normalized for GAPDH mRNA of each sample.
The proteins of the candidate senescence factors (IGFBP7 and RSPO4) (purchased from Serotec, R&D SYSTEMS) were added to the culture medium for culturing the young fibroblasts at a concentration of 0 μg/ml and 10 μg/ml. After culturing for 2 days, the cells were then separately recovered using Qiazole (Qiagen). In the same way as disclosed in the section relating to quantitative RT-PCR, the expression levels of MMP1 and collagen were examined in the recovered cell lysate.

B1: IGFBP7: Homo sapiens insulin-like growth factor binding protein 7 protein, purchased (Serotec, R&D SYSTEMS), candidate senescence factor (protein, UniProt Q16270 27-282, looked up)
Insulin-like growth …: SSSDTCGPCEPASCPPLPPLGCLLGETRDACGCCPMCARGEGEPCGGGGAGRGYCAPGMECVKSRKRRKGKAGAAAGGPGVSGVCVCKSRYPVCGSDGTTYPSGCQLRAASQRAESRGEKAITQVSKGTCEQGPSIVTPPKDIWNVTGAQVYLSCEVIGIPTPVLIWNKVKRGHYGVQRTELLPGDRDNLAIQTRGGPEKHEVTGWVLVSPLSKEDAGEYECHASNSQGQASASAKITVVDALHEIPVKKGEGAEL
MMP1 expression: increased
expression of collagen (Collagen 1 gene): reduced

B2: RSPO4: Homo sapiens R-spondin family, member 4 protein, purchased (Serotec, R&D SYSTEMS), candidate senescence factor (protein, UniProt Q2I0M5 20-234, looked up)
R-spondin-4: LNRRKKQVGTGLGGNCTGCIICSEENGCSTCQQRLFLFIRREGIRQYGKCLHDCPPGYFGIRGQEVNRCKKCGATCESCFSQDFCIRCKRQFYLYKGKCLPTCPPGTLAHQNTRECQGECELGPWGGWSPCTHNGKTCGSAWGLESRVREAGRAGHEEAATCQVLSESRKCPIQRPCPGERSPGQKKGRKDRRPRKDRKLDRRLDVRPRQPGLQP
MMP1 expression: increased
expression of collagen (Collagen 1 gene): reduced
